Measured values: US20170210824A1

Molecular target: Peptide-3B (NME1 H118, 1-pTza) (mammalian)
Assay: peptide dot blot array

lowest amount detected: 1 ng
Substance: 1-pHis mAb SC1-1 (antibody)
